Experimental findings from patent US20220228157A1, “GENE EDITING IN DIVERSE BACTERIA” (priority 2019, published 2022) are described below.

Assay [1] has as its target L. lactis single-stranded binding protein (LlSSB) (L. lactis) (UniProt Q9CDM9). Description: cell-based or functional assay.
For assay [2], the target named is PaSSB (Pseudomonas aeruginosa single-stranded binding protein) (Pseudomonas aeruginosa) (UniProt P40947). Description: cell-based or functional assay.
For assay [3], the target named is E. coli single-stranded binding protein (EcSSB) (E. coli) (UniProt P0AGE0). Description: cell-based or functional assay. As to conditions: scale: fold improved over the RecT protein alone.
Assay [4] has as its target EcSSBΔ9 (EcSSB with a 9-amino-acid C-terminal deletion) (E. coli) (UniProt P0AGE0). The assay can be described thus: cell-based or functional assay.
In assay [5] the target is LlSSB C7:EcSSB (L. lactis SSB with its last 7 C-terminal residues replaced by those of EcSSB) (L. lactis) (UniProt Q9CDM9). The assay can be described thus: cell-based or functional assay.
The target in assay [6] is LlSSB C8:EcSSB (L. lactis SSB with its last 8 C-terminal residues replaced by those of EcSSB) (L. lactis) (UniProt Q9CDM9). Description: cell-based or functional assay.
Assay [7] concerns E. coli. The assay can be described thus: Fifteen cycles of MAGE with pool of 15 oligos, editing efficiency by NGS. Type of assay: cell-based, Escherichia coli. As to conditions: 15 separate mutations, one week. As for the experimental part:
E. coli populations expressing either an efficient SSAP (SEQ ID NO: 157), an efficient SSAP/SSB pair (SEQ ID NO: 157/SEQ ID NO: 384), or the widely-used Redβ were taken through fifteen cycles of MAGE and transformed each cycle with a 10 μM pool comprising 15 unique oligos. Editing efficiency at each targeted locus was measured by NGS and averaged (FIG. 3).

The test system of assay [8] is E. coli. Description: Editing efficiency by NGS, non-coding mismatch at a non-essential gene. It is filed as cell-based, Escherichia coli. Conditions: versus Redβ expressed off wild-type codons. As for the experimental part: Top-performing SSAPs and SSAP/SSB pairs from experiments in E. coli, L. lactis, and M. smegmatis are shown in FIG. 2A, FIG. 2B and FIG. 2C, respectively. Bars in red are the proteins that had previously been reported in the literature. The proteins listed were found after ten rounds of selection for protein variants that enabled the introduction of an oligonucleotide that conferred a genomic edit that provided antibiotic resistance. Unbiased editing efficiency was tested in each case by introducing a non-coding base change at a non-essential gene and measuring the frequency of incorporation via next generation sequencing.
Their recombineering efficiency was tested against Redβ expressed off of its wild-type codons on the same plasmid system used for the SEER selections. […]
The efficiency of each SSAP or SSAP/SSB pair was measured by expressing them off of their host-specific plasmid in the naïve parent strain and running a recombineering cycle with an oligo that confers a 4-nucleotide non-coding mismatch in a non-essential gene. The allele was then amplified by PCR and editing efficiency was measured by next-generation sequencing.
To measure single locus editing, a recombineering cycle was run with an oligo that confers a single base pair non-coding mismatch in a non-essential gene. The allele was then amplified by PCR and editing efficiency was measured by NGS as described above. […]

For assay [9], the system named is Agrobacterium tumefaciens. Description: Oligo-recombineering efficiency of SSAP/SSB library members. Type of assay: cell-based. Conditions: A. tumefaciens, after two rounds of selection. As for the experimental part:
A library of the most broadly-acting three (3) SSAPs and twenty five (25) SSBs was cloned into an Agrobacterium tumefaciens (A. tumefaciens) vector (75-member library). The library was selected for efficient genome editing, and oligo-recombineering. Efficiency was measured from the two most frequent members of the library after two rounds of selection. Editing efficiency of close to 1% was measured in SSAP SEQ ID NO: 143/SSB SEQ ID NO: 310. […] A. tumefaciens is quite distantly related to E. coli, L. lactis, and M. smegmatis (FIG. 7).

PapRecT: in [1], the genome editing efficiency in L. lactis (fold less than the cognate pair) was found to be 135. In addition, the editing efficiency in L. lactis, pair against the RecT protein alone in assay [2] (scale: fold improved over the RecT protein alone) came out at 1170.
Consider “Redβ single-stranded annealing protein (SSAP) from Enterobacteria phage λ (from UniProt P03698 1-261)”, for which the editing efficiency in L. lactis, pair against the RecT protein alone in assay [3] was 483. Also, the genome editing efficiency in L. lactis (fold lower than Redβ with EcSSB) in assay [4] came out at 44. Further, in [1], the genome editing efficiency in L. lactis (fold less than Redβ with EcSSB) turned out to be 38.5. In assay [5], this molecule yielded an editing rate in L. lactis (fold of Redβ with EcSSB) of 5.9. Further, in assay [6], the editing rate in L. lactis (fold of Redβ with EcSSB) was determined as 2.6. In assay [2], this molecule showed an editing efficiency in C. crescentus (fold over Redβ alone) of 15; an editing efficiency in C. crescentus after expression optimization and evasion of mismatch repair (fold higher than Redβ alone) of 112; an editing efficiency in C. crescentus after expression optimization and evasion of mismatch repair (fold over the background level) of 873.

B1: SEQ ID NO: 157/SEQ ID NO: 384: efficient SSAP/SSB pair co-expressed in E. coli (protein, listed as Clostridium sordellii)
chain 1: MNQIVKFTDDSGLAVQVTPDDVRRYICENATEKEVGLFLQLCQTQRLNPFVKDAYLVKYGGAPASMITSYQVFNRRACRDANYDGIKSGVVVLRDGDVVHKRGAACYKKAGEELIGGWAEVRFKDGRETAYAEVALDDYSTGKSNWAKMPGVMIEKCAKAAAWRLAFPDTFQGMYAAEEMDQAQQPEQVRAQAEQPVDLQPIRELFKPYCEHFGITPAEGMTAVCGAVGAEGMHSMTEQQARRARAWMEEEMAAPAVEAEYEVVDEGEVF
chain 2: MNHVVLVGRLTKDPELRYIPGTGTAVATFTIAIDRDYAKKDGSRETDFIPVEVMGKSAEFCANYISKGRLVALQGSIRVDNYQNQSGERRTFTKVSARNIQALDSNKNRSDSPYPSQNQSFEPSFEPSFEPTGLDPQGFQAIDDDDIPF
modifications: Collinsella stercoris DSM 13279
notes: efficient SSAP/SSB pair co-expressed in E. coli
As to B1, the “Editing efficiency, averaged over targeted loci” value in the assay on E. coli [7] is on record as approximately 100%.

B2: codon-optimized version of Redβ: Redβ expressed from the codon-optimized gene included in Broad SSAP Library (protein, UniProt P03698 1-261, looked up)
Recombination protein bet: MSTALATLAGKLAERVGMDSVDPQELITTLRQTAFKGDASDAQFIALLIVANQYGLNPWTKEIYAFPDKQNGIVPVVGVDGWSRIINENQQFDGMDFEQDNESCTCRIYRKDRNHPICVTEWMDECRREPFKTREGREITGPWQSHPKRMLRHKAMIQCARLAFGFAGIYDKDEAERIVENTAYTAERQPERDITPVNDETMQEINTLLIALDKTWDDDLLPLCSQIFRRDIRASSELTQAEAVKALGFLKQKAAEQKVAA
modifications: expressed from codon-optimized gene
notes: Redβ expressed from the codon-optimized gene included in Broad SSAP Library
Consider B2, for which the “Effect of codon usage on editing efficiency” value with E. coli [8] is “significantly decreased efficiency”.

B3: SSAP SEQ ID NO: 143/SSB SEQ ID NO: 310: co-expressed SSAP/SSB pair (protein, listed as Helicobacter pullorum)
chain 1: MAENEKQALLQEENKSENVVSTVKRTALATNPFSDTDQFNNIFKMAQLISQSDMIPATYKGKPMNCVIALEQANRMGVSPLMVMQNLYVVKGVPSWSGQGCMMIIQGCGKFRDVDYVYSGEKGTDSRSCKVVATRISDGKRIEGTEITMQMVKSEGWISNTKWKNMPEQMLGYRAATFFARMYCPNELNGFATEGEAEDMNHKPQRIEAINVLGDTAHE
chain 2: MFNKVILVGNLTRDVELRYLPSGAALARLNLATNRRYKKQDGTQAEEVCFIDVNLFGRTAEVANQYLKKGSQVLIEGRLVLESWTDNTGAKRTKHSITAESMQMLGQRQSTQEENHDYGAGDYNNYQEYEKPAYTASAAPKAQPVQKEPELPVIDINDDEIPF
modifications: Clostridium sp FS41
notes: co-expressed SSAP/SSB pair
Consider B3, for which the Editing efficiency in [9] is on record as approximately 1%.
